Earlier results, collected in article PMC4792251.
pKd: −log10 of the molar value. Like-named read-outs stand apart in the source and are kept apart here.

What was measured:
[1] = biological target: BHRF1 (Epstein-Barr virus) (UniProt P03182)
Mcl-1 (Homo sapiens) [2] = biological target: Mcl-1 (Homo sapiens) (UniProt Q07820)
Mcl-1 (Homo sapiens) [3] = biological target: Mcl-1 (Homo sapiens) (UniProt Q07820); remark: listed apart in the source

Bid BH3 peptide, sequence (P55957 80-99): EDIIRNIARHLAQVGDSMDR
UniProt Q07820, sequence (Q07820 whole entry): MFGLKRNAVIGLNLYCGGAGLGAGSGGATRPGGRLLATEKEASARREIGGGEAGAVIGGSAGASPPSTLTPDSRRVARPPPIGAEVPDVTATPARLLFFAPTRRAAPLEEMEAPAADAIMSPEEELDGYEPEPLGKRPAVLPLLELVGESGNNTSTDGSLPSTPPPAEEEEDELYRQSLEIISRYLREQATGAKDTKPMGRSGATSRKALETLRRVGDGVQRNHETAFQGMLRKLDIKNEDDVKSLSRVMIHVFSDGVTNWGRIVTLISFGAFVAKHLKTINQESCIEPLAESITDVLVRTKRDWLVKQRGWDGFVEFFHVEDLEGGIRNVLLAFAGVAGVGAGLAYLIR
UniProt P03182, sequence (P03182 whole entry): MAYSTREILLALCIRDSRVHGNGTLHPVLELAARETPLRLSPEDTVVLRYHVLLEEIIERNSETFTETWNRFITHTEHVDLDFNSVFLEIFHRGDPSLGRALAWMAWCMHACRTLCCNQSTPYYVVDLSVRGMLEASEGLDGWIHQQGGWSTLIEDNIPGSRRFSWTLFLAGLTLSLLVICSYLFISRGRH
Noxa B BH3 peptide, sequence (Q9JM54 68-87): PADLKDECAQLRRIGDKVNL

Row | pKd (Mcl-1 (Homo sapiens) [3]) | Substance | pKd [1] | pKd (Mcl-1 (Homo sapiens) [2])
1 |  | Bid BH3 peptide | 7.00 | > 8.00
2 | 7.55 | Noxa B BH3 peptide |  | 
